Data as given in publication PMC9482650, “Quantitative fragmentomics allow affinity mapping of interactomes” (Nature Communications, 2022).

Experiments:
Test in all cases: holdup assay
Set-up in all cases: key: below the threshold = too weak to quantify, mostly under pKd 3.1 to 4
[1] = molecular target: GOPC, Q9HD26
[2] = molecular target: CASK, O14936
[3] = molecular target: GRIP2_6, Q9C0E4
[4] = molecular target: Inadl_1, Q8NI35
[5] = molecular target: T1, NHERF3_1, Q5T2W1
T1 sequence (Q5T2W1 4-100, limits assumed, looked up): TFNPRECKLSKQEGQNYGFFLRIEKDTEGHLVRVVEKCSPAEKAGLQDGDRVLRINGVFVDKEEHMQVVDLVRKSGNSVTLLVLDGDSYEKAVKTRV

[6] = molecular target: T2, SNTG1, Q9NSN8
T2 sequence (Q9NSN8 52-150, limits assumed, looked up): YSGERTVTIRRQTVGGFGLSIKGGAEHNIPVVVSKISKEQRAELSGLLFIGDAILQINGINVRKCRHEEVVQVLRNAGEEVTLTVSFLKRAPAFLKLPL

[7] = molecular target: GIPC2, Q8TF65
Sequence of GIPC2, Q8TF65 (Q8TF65 112-203): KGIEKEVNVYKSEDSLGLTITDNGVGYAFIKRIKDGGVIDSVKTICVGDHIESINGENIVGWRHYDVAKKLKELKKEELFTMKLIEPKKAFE

[8] = molecular target: GRID2IP_1, A4D2P6
Sequence of GRID2IP_1, A4D2P6 (A4D2P6 1-87): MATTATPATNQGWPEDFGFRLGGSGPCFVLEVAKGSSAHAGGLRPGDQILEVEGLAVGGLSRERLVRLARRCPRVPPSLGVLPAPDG

[9] = molecular target: MAGI2_2, Q86UL8
Sequence of MAGI2_2, Q86UL8 (Q86UL8 410-522): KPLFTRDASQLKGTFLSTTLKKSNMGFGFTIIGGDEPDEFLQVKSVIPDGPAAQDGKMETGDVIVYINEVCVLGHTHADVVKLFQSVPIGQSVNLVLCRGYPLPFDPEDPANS

[10] = molecular target: T3, MPDZ_10, O75970
T3 sequence (O75970 1624-1722, limits assumed, looked up): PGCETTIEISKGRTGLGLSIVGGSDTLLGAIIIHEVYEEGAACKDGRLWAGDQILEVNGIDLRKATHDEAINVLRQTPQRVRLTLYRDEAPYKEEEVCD

[11] = molecular target: SCRIB_1, Q14160
Sequence of SCRIB_1, Q14160 (Q14160 718-814): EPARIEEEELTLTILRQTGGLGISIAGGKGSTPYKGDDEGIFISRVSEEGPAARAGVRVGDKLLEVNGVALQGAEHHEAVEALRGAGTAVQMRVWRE

[12] = molecular target: T4, LIN7C, Q9NUP9
T4 sequence (Q9NUP9 88-185, limits assumed, looked up): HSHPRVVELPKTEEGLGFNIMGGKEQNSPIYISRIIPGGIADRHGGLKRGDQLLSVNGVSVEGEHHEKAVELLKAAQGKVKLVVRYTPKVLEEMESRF

[13] = molecular target: T5, DFNB31_3, Q9P202
T5 sequence (Q9P202 811-907, limits assumed, looked up): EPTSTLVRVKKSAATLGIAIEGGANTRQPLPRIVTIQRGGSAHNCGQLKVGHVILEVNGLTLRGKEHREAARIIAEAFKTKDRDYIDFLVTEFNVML

[14] = molecular target: DLG2_2, Q15700
[15] = molecular target: T6, APBA3_1, O96018
T6 sequence (O96018 389-490, limits assumed, looked up): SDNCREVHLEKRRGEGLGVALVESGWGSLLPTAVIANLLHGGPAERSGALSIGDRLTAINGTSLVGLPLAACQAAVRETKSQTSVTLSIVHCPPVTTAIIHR

[16] = molecular target: TJP1_3, Q07157
Sequence of TJP1_3, Q07157 (Q07157 416-512): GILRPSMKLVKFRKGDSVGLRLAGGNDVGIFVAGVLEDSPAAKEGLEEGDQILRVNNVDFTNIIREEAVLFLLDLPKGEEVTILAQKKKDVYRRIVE

[17] = molecular target: T7, RAPGEF6, Q8TEU7
T7 sequence (Q8TEU7 525-625, limits assumed, looked up): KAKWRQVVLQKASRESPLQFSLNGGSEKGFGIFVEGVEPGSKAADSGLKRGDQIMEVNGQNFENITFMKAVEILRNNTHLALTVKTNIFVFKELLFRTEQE

[18] = molecular target: MAGI2_3, Q86UL8
Sequence of MAGI2_3, Q86UL8 (Q86UL8 600-682): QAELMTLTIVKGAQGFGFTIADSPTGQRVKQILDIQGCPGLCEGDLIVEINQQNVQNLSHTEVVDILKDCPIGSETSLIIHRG

[19] = molecular target: T8, SNTA1, Q13424
T8 sequence (Q13424 82-180, limits assumed, looked up): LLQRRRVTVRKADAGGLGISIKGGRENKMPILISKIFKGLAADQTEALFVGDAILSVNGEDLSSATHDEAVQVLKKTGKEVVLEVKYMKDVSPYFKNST

[20] = molecular target: NHERF2_2, Q15599
Sequence of NHERF2_2, Q15599 (Q15599 142-238): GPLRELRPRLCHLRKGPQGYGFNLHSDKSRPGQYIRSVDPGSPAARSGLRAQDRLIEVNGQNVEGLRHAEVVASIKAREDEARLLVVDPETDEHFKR

[21] = molecular target: IL16_4, Q14005
Sequence of IL16_4, Q14005 (Q14005 1229-1329): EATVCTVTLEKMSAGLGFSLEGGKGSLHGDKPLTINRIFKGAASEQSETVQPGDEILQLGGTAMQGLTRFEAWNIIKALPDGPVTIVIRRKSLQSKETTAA

[22] = molecular target: FRMPD4, Q14CM0
Sequence of FRMPD4, Q14CM0 (Q14CM0 67-160): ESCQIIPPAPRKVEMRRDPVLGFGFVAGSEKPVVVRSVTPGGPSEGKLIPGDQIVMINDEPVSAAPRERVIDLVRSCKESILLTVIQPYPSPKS

[23] = molecular target: T9, PARD3B_1, Q8TEW8
T9 sequence (Q8TEW8 196-299, limits assumed, looked up): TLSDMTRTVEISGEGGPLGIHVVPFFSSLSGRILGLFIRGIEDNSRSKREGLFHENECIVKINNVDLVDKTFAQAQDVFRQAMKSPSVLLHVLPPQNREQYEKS

[24] = molecular target: LDB3, O75112
Sequence of LDB3, O75112 (O75112 1-94): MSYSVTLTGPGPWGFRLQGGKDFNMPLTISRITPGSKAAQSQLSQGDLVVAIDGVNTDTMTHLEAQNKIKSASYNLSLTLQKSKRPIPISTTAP

[25] = molecular target: DLG5_1, Q8TDM6
Sequence of DLG5_1, Q8TDM6 (Q8TDM6 617-713): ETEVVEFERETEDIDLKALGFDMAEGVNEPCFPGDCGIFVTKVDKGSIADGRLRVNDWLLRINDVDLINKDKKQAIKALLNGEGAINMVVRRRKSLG

[26] = molecular target: DLG2_3, Q15700
[27] = molecular target: FRMPD2_2, Q68DX3
Sequence of FRMPD2_2, Q68DX3 (Q68DX3 944-1038): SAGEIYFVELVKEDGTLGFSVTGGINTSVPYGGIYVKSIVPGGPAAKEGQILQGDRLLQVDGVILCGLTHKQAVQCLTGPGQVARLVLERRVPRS

[28] = molecular target: T10, MPDZ_12, O75970
T10 sequence (O75970 1857-1958, limits assumed, looked up): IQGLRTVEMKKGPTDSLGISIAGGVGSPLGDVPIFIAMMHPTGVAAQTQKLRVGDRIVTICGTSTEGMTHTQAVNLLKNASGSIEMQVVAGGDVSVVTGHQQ

[29] = plain residues with an end cap or a label only (N-terminal biotin on a linker: ado-ado)
[30] = plain residues with an end cap or a label only (N-terminal biotin on a linker: (peg)3)
[31] = plain residues with an end cap or a label only (N-terminal biotin on a linker: ahx)

Sequence of CASK, O14936 (O14936 487-570): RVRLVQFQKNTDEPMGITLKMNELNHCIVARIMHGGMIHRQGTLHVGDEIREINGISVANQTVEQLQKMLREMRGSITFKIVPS
Sequence of Inadl_1, Q8NI35 (Q8NI35 113-229): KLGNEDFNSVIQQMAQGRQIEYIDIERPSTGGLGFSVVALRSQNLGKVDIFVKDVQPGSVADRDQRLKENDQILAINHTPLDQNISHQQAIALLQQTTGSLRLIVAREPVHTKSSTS
Sequence of GRIP2_6, Q9C0E4 (Q9C0E4 648-740): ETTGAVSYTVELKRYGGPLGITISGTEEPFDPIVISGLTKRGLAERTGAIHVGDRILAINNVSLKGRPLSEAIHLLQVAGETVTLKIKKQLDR

EIPAQSPTCV [FZD10, Q9ULW2]
pKd [1, 29]: 3.94
pKd [2, 29]: 3.59
pKd [3, 29]: 3.74
pKd [4, 29]: 3.58
pKd [5, 29]: below the threshold
pKd [6, 29]: 3.83
pKd [7, 29]: 3.74
pKd [8, 29]: 3.72
pKd [9, 29]: 4.17
pKd [10, 29]: 3.89
pKd [11, 29]: 3.81
pKd [12, 29]: below the threshold
pKd [13, 29]: below the threshold
pKd [14, 29]: 3.89
pKd [15, 29]: 3.57
pKd [16, 29]: 3.65
pKd [17, 29]: below the threshold
pKd [18, 29]: below the threshold
pKd [19, 29]: 3.83
pKd [20, 29]: 3.81
pKd [21, 29]: below the threshold
pKd [22, 29]: 3.75
pKd [23, 29]: below the threshold
pKd [24, 29]: below the threshold
pKd [25, 29]: 3.71
pKd [26, 29]: below the threshold
pKd [27, 29]: 3.74
pKd [28, 29]: below the threshold

RYEDTTLVEDTVL [WNV-NS5, Q9Q6P4]
pKd [1, 30]: 3.71
pKd [2, 30]: below the threshold
pKd [3, 30]: below the threshold
pKd [4, 30]: below the threshold
pKd [5, 30]: 4.43
pKd [6, 30]: below the threshold
pKd [7, 30]: below the threshold
pKd [8, 30]: below the threshold
pKd [9, 30]: below the threshold
pKd [10, 30]: below the threshold
pKd [11, 30]: 3.95
pKd [12, 30]: below the threshold
pKd [13, 30]: below the threshold
pKd [14, 30]: below the threshold
pKd [15, 30]: below the threshold
pKd [16, 30]: below the threshold
pKd [17, 30]: below the threshold
pKd [18, 30]: below the threshold
pKd [19, 30]: 4.14
pKd [20, 30]: 4.89
pKd [21, 30]: 3.56
pKd [22, 30]: 4.85
pKd [23, 30]: 4.66
pKd [24, 30]: below the threshold
pKd [25, 30]: below the threshold
pKd [26, 30]: below the threshold
pKd [27, 30]: below the threshold
pKd [28, 30]: below the threshold

DFLSTFHIRI [CIB2, O75838]
pKd [1, 29]: below the threshold
pKd [2, 29]: below the threshold
pKd [3, 29]: 4.58
pKd [4, 29]: 3.91
pKd [5, 29]: below the threshold
pKd [6, 29]: below the threshold
pKd [7, 29]: below the threshold
pKd [8, 29]: below the threshold
pKd [9, 29]: below the threshold
pKd [10, 29]: below the threshold
pKd [11, 29]: below the threshold
pKd [12, 29]: below the threshold
pKd [13, 29]: 3.5
pKd [14, 29]: below the threshold
pKd [15, 29]: below the threshold
pKd [16, 29]: below the threshold
pKd [17, 29]: below the threshold
pKd [18, 29]: below the threshold
pKd [19, 29]: below the threshold
pKd [20, 29]: below the threshold
pKd [21, 29]: below the threshold
pKd [22, 29]: below the threshold
pKd [23, 29]: 4.68
pKd [24, 29]: below the threshold
pKd [25, 29]: below the threshold
pKd [26, 29]: below the threshold
pKd [27, 29]: below the threshold
pKd [28, 29]: below the threshold

DPAESMESLV [PTPRG, P23470]
pKd [1, 29]: below the threshold
pKd [2, 29]: below the threshold
pKd [3, 29]: below the threshold
pKd [4, 29]: below the threshold
pKd [5, 29]: 4.7
pKd [6, 29]: 4.66
pKd [7, 29]: 3.95
pKd [8, 29]: below the threshold
pKd [9, 29]: 4.24
pKd [10, 29]: below the threshold
pKd [11, 29]: below the threshold
pKd [12, 29]: 3.94
pKd [13, 29]: 3.88
pKd [14, 29]: 4.68
pKd [15, 29]: below the threshold
pKd [16, 29]: below the threshold
pKd [17, 29]: below the threshold
pKd [18, 29]: 4.54
pKd [19, 29]: 4.46
pKd [20, 29]: below the threshold
pKd [21, 29]: below the threshold
pKd [22, 29]: 3.58
pKd [23, 29]: below the threshold
pKd [24, 29]: below the threshold
pKd [25, 29]: below the threshold
pKd [26, 29]: below the threshold
pKd [27, 29]: 4.54
pKd [28, 29]: below the threshold

QPRTWLQSPV [RTKN, Q9BST9]
pKd [1, 31]: 4.07
pKd [2, 31]: below the threshold
pKd [3, 31]: below the threshold
pKd [4, 31]: below the threshold
pKd [5, 31]: 4.29
pKd [6, 31]: 3.52
pKd [7, 31]: below the threshold
pKd [8, 31]: below the threshold
pKd [9, 31]: 4.39
pKd [10, 31]: 3.97
pKd [11, 31]: 3.69
pKd [12, 31]: below the threshold
pKd [13, 31]: below the threshold
pKd [14, 31]: 4.71
pKd [15, 31]: below the threshold
pKd [16, 31]: below the threshold
pKd [17, 31]: below the threshold
pKd [18, 31]: below the threshold
pKd [19, 31]: below the threshold
pKd [20, 31]: below the threshold
pKd [21, 31]: below the threshold
pKd [22, 31]: below the threshold
pKd [23, 31]: below the threshold
pKd [24, 31]: below the threshold
pKd [25, 31]: below the threshold
pKd [26, 31]: 3.62
pKd [27, 31]: below the threshold
pKd [28, 31]: below the threshold
